Measurements from patent publication US20250019450A1 (DIAGONAL THERAPEUTICS, published 2025).

Legend:
[1] = target: T1, human IL-12RB2 overexpressed on 293T cells (Example 2) (human, UniProt Q99665 24-862); test: FACS, hybridoma supernatant, 293T
T1 construct: whole, on cells
T1 sequence (looked up): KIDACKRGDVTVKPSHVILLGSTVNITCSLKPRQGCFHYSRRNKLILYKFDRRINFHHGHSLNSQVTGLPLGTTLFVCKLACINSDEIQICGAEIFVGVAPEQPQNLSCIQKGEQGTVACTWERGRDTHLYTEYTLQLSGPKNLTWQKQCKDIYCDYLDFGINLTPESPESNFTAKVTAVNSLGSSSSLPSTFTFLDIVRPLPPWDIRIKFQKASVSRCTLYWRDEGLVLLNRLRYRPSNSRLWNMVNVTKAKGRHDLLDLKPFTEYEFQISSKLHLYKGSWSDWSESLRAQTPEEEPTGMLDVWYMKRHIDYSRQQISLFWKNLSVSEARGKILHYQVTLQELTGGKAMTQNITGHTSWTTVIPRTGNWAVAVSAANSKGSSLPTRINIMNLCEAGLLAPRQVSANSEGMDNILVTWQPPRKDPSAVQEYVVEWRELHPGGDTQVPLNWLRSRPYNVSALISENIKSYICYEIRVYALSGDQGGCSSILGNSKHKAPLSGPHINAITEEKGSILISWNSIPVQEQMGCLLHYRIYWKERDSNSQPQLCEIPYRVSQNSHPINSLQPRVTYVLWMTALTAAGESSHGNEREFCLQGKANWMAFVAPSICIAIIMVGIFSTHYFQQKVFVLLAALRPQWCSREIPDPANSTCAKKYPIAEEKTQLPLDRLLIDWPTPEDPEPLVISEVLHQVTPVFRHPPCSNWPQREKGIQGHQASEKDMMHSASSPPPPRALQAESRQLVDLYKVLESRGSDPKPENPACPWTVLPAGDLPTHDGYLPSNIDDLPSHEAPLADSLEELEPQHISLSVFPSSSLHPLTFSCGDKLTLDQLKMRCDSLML

[2] = target: T2, cyno IL-12RB2 overexpressed on 293T cells (Example 2) (cyno, UniProt A0A2K5VNI7 24-860); test: FACS, hybridoma supernatant, 293T
T2 construct: whole, on cells
T2 sequence: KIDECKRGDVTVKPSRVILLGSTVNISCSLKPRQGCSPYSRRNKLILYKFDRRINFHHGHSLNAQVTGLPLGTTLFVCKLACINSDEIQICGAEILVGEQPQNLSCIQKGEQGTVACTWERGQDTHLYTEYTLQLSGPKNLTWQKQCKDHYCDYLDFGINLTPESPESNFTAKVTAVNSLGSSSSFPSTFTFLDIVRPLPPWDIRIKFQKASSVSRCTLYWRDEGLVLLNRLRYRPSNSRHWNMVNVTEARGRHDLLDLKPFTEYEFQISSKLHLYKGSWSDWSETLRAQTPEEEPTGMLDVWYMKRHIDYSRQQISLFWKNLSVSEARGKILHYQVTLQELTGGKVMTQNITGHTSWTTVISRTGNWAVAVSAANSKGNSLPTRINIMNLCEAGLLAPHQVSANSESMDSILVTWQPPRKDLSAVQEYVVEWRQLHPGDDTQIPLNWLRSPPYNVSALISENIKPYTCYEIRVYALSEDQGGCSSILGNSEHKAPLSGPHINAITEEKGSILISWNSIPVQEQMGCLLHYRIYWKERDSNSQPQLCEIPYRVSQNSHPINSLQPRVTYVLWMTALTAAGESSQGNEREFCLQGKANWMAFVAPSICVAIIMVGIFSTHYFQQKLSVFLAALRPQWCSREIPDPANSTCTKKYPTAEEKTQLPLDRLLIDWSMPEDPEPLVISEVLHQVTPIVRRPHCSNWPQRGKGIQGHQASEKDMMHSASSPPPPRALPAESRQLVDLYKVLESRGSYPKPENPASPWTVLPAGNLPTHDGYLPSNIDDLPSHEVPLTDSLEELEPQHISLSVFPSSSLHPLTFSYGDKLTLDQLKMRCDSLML

[3] = target: T3, IL-12 receptor endogenously expressed on THP-1 cells (UniProt P42701 24-662; Q99665 24-862); test: FACS, hybridoma supernatant, THP-1
T3 construct: whole, on cells

B1: 85802_10M17 (antibody, V domains shown)
VH: EVLLVESGGGLVKPGGSLRLSCAASGFTFSSYSMNWVRQAPGKGLEWVSSISSSSDYIHYADSVRGRFTISRDNAKNSLYLQMNSLRAEDTAVYYCARSELGFDYWGQGTLVTVSS
VL: DIQMTQSPSSVSASVGDRVTITCRASQGISIWLAWYQQKPGKAPKPLIYAASSLQSGVPSRFSGSGSGTDFTLTISSLQPEDFATYYCQQANSFPLTFGGGTKVEIK
notes: also called 85802_10M17A
Fold over parental 293T [1]: 3.8 fold | Fold over parental 293T [2]: 12 fold | Fold over buffer [3]: 21 fold

B2: 85802_08F20 (antibody, V domains shown)
VH: QVQLVQSGAEVKKPGASVKVSCKASGYTFIGYYIHWVRQAPGQGLEWMGWINPHSGGTNYAQKFQGRVTMTRDTSISTAYMELSRLRSDDTAIYYCTKEANNWGYAFDIWGQGTMVTVSS
VL: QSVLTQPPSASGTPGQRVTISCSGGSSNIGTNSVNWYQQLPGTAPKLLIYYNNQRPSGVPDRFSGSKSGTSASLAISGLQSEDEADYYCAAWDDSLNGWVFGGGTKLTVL
notes: also called 85802_08F20A
Fold over parental 293T [1]: 3.4 fold | Fold over parental 293T [2]: 8 fold | Fold over buffer [3]: 21 fold
